Assay results taken from patent publication US20130252887A1 (BETH ISRAEL DEACONESS MEDICAL CENTER, published 2013).

T1: Beta2-glycoprotein I (β2GPI), full-length, human (human, UniProt P02749 20-345)
T1 construct: mature; Two preparations of the same native protein were used, serum and purified from plasma; the assay field of each row says which; Where anti-β2GPI antibodies (Cedarlane CL20021HP, peroxidase-conjugated) were present, β2GPI stood as dimeric β2GPI/antibody complexes; also called B2GPI; β2GPI in normal human serum
T1 sequence (looked up): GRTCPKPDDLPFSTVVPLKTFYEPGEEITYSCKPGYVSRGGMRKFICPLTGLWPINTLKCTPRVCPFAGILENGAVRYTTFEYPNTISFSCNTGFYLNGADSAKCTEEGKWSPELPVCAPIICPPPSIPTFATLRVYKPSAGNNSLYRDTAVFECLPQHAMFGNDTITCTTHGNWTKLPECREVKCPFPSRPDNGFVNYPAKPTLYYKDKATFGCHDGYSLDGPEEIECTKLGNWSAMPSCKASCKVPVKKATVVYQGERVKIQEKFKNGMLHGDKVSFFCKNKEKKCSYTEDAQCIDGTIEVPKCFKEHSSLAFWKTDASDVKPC

T2: isolated recombinant domain V of β2GPI (residues 244-326) with N-terminal HA peptide tag (UniProt P02749 263-345)
T2 construct: range 244-326; Expressed in E. coli from pET15b with a His tag that was removed with TEV protease; The HA-tagged form was used in the cardiolipin assays, where it was detected or dimerized with anti-HA antibody Abcam ab1265; also called β2GPI-DV; individual domain V of β2GPI
T2 sequence: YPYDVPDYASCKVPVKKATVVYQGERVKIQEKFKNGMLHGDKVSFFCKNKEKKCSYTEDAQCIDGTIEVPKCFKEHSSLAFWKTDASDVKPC


Assays:
[1] = target: T1, Beta2-glycoprotein I (β2GPI), …; experiment: inhibition of binding of 10 nM β2GPI purified from plasma to a cardiolipin-coated plate, with anti-β2GPI antibodies present; OD405, one-site inhibition fit
Procedure: Next, we analyzed how A1-A1 and A1 inhibit the binding of purified β2GPI to cardiolipin. […] We used β2GPI purified from human plasma available from Haematologic Technologies, Inc. and analyzed the binding and inhibition of the binding of purified β2GPI by A1-A1 and A1 in the presence and in the absence of anti-β2GPI antibodies. […] We incubated 10 nM of β2GPI with various concentrations of the dimeric, A1-A1, and monomeric, A1, inhibitors in the presence of anti-β2GPI antibodies. […] In a separate experiment, we measured the inhibition of β2GPI in the presence of antibodies and compared the measured values to values predicted by the fit of the titration data (FIG. 4C). The measured values were close to those expected from the fit, additionally confirming that in the presence of anti-β2GPI antibodies a much lower concentration of A1-A1 was required to inhibit 50% of the binding of purified β2GPI to cardiolipin compared to A1. […] Similarly to what we observed for β2GPI in serum, the binding of purified β2GPI to cardiolipin in the presence of anti-β2GPI antibodies was inhibited more strongly by the dimeric inhibitor A1-A1 than by A1. Both, A1-A1 and A1, were ineffective in the inhibition of β2GPI in the absence of anti-β2GPI antibodies. […]

[2] = target: T2, isolated recombinant domain V of β2GPI …; experiment: inhibition of binding of 30 nM HA-tagged β2GPI-DV to a cardiolipin-coated plate, with anti-tag (anti-HA) antibody present (dimeric complexes); OD405, one-site fit
Procedure: As we observed for the inhibition of the binding of β2GPI in human serum and purified β2GPI to cardiolipin-coated surfaces, the isolated domain V was inhibited much stronger by the dimeric inhibitor A1-A1 compared to monomeric A1 in the presence of dimeric β2GPI-DV/anti-tag antibody complexes.
Cardiolipin-coated 96 well plates available as part of the ImmunoWELL cardiolipin IgG test kit (GenBio) were blocked with 0.5% of skim milk and 2% BSA in 20 mM Tris, 100 mM NaCl, 2 mM CaCl₂, pH 7.4. The assay buffer contained 20 mM Tris, 100 mM NaCl, 2 mM CaCl₂, pH 7.4 with 2% BSA and the wash buffer was 20 mM Tris, 100 mM NaCl, 2 mM CaCl₂, pH 7.4. When the purified β2GPI (Haematologic Technologies, Inc.) was used in experiments, 27 mM glycine was added to the assay buffer to account for glycine present in the stock solution of β2GPI. β2GPI bound to cardiolipin was detected with peroxidase-conjugated anti-β2GPI antibodies (Cedarlane, CL20021HP, 2 mg/ml) diluted 1:2500. […] The peroxidase activity of the bound antibodies was detected using 2-2′-azino-di-[3-ethylbenzthizzoline]sulfonate (ABTS) chromogenic reagent by measuring OD at 405 nm. […] The fits of the raw data and the titration data points were then normalized to the maximum binding determined from the fit to facilitate comparison. […]

[3] = target: T1, Beta2-glycoprotein I (β2GPI), …; experiment: inhibition of binding of β2GPI in 1% human serum to a cardiolipin-coated plate, without anti-β2GPI antibodies during binding (monomeric β2GPI); OD405, one-site fit
Description: (§1) We compared the dimeric inhibitor, A1-A1, to monomeric A1 on the inhibition of binding of β2GPI/anti-β2GPI antibody complexes to cardiolipin. First, we used pooled normal human serum as a source of β2GPI. The majority of the β2GPI molecules in serum is in the circular form (Agar et al., Blood, 2010). To select the appropriate concentration of β2GPI for the inhibition studies, we measured the binding of β2GPI to cardiolipin (FIG. 2A). To create β2GPI/anti-β2GPI complexes, anti-β2GPI antibodies at constant concentration were added to β2GPI before the samples were applied to cardiolipin. […] We then compared the efficiency of A1-A1 and A1 for the inhibition of the binding of β2GPI in serum to cardiolipin in the presence of anti-β2GPI antibodies (FIG. 2B). 0.04% of human serum, which is in the linear region of the binding curve, was incubated on a cardiolipin-coated surface in the presence of anti-β2GPI antibodies and the inhibitors. In the presence of anti-β2GPI antibodies, the dimeric molecule, A1-A1, inhibited the binding to cardiolipin of β2GPI in serum much stronger than monomeric A1. […] Also, we measured how A1-A1 and A1 inhibited the binding of β2GPI in serum in the absence of anti-β2GPI antibodies (FIG. 3). A 1% solution of human serum was titrated with A1-A1 or A1 and β2GPI bound to cardiolipin was subsequently detected with anti-β2GPI antibodies. […]

[4] = target: T1, Beta2-glycoprotein I (β2GPI), …; experiment: inhibition of binding of β2GPI in 0.04% human serum to a cardiolipin-coated plate, with anti-β2GPI antibodies present (β2GPI/antibody complexes); OD405, one-site fit
Description: as §1

[5] = target: T2, isolated recombinant domain V of β2GPI …; experiment: inhibition of binding of isolated HA-tagged β2GPI-DV to a cardiolipin-coated plate, without dimerization antibodies; OD405, one-site fit
Procedure: Cardiolipin-coated 96 well plates available as part of the ImmunoWELL cardiolipin IgG test kit (GenBio) were blocked with 0.5% of skim milk and 2% BSA in 20 mM Tris, 100 mM NaCl, 2 mM CaCl₂, pH 7.4. The assay buffer contained 20 mM Tris, 100 mM NaCl, 2 mM CaCl₂, pH 7.4 with 2% BSA and the wash buffer was 20 mM Tris, 100 mM NaCl, 2 mM CaCl₂, pH 7.4. When the purified β2GPI (Haematologic Technologies, Inc.) was used in experiments, 27 mM glycine was added to the assay buffer to account for glycine present in the stock solution of β2GPI. β2GPI bound to cardiolipin was detected with peroxidase-conjugated anti-β2GPI antibodies (Cedarlane, CL20021HP, 2 mg/ml) diluted 1:2500. […] The peroxidase activity of the bound antibodies was detected using 2-2′-azino-di-[3-ethylbenzthizzoline]sulfonate (ABTS) chromogenic reagent by measuring OD at 405 nm. […] The fits of the raw data and the titration data points were then normalized to the maximum binding determined from the fit to facilitate comparison.
For the inhibition studies, increasing concentrations of A1 or A1-A1 were added to a constant amount of β2GPI ([…]), normal human serum (1%) or β2GPI-DV (130 nM) and incubated for 1 hour at room temperature. […] Then, samples were incubated on wells for an additional 1 hour and, after washing, the bound β2GPI/anti-β2GPI or β2GPI-DV/anti-tag antibody complexes were detected.

| Binder | IC50 [1] | IC50 [2] | IC50 [3] | IC50 [4] | IC50 [5] |
| --- | --- | --- | --- | --- | --- |
| dimeric inhibitor A1-A1 (two A1 ligand-binding LA modules of ApoER2 connected by a Gly-Ser-Ser-Gly linker) (designed binder) AECEEDQFRCRNERCIPLVWRCDEDNDCSDNSDEDDCGSSGCEEDQFRCRNERCIPLVWRCDEDNDCSDNSDEDDCEA | 26 µM | 12 µM | 189 µM | 10 µM |  |
| monomeric A1 (first LA module of mouse ApoER2, residues 12-47 of the mature protein) (receptor, range 12-47; Residues 12-47 are counted on the mature protein, not the precursor; also called A1 module) not shown | 191 µM | 204 µM | 176 µM | 218 µM | 188 µM |
